# System: Escherichia coli TOP10
# Test: shrunken log2 fold change of peptide-encoding DNA abundance (4.5 h post-induction vs induction); higher = less antimicrobial activity (less host growth inhibition)
# Conditions: time post-induction: 4.5 h; library: site-saturation at positions 5, 18, 19, 20
# 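Further: peptides expressed intracellularly from a pBAD plasmid library in pooled LB shake-flask culture, induced with 0.3% L-arabinose, DNA abundance read by NGS, three biological replicates, DESeq2 with apeglm shrinkage.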
row,Sequence,shrunken log2 fold change
1,RRIRKRPPRLPRPRPRPCHKPRP,0.0108
2,RRIRHRPPRLPRPRPRPNFRPRP,-0.144
3,RRIRCRPPRLPRPRPRPEHQPRP,0.0614
4,RRIRIRPPRLPRPRPRPRWMPRP,0.341
5,RRIRSRPPRLPRPRPRPWDRPRP,-0.0645
6,RRIRCRPPRLPRPRPRPGSWPRP,0.439
7,RRIRNRPPRLPRPRPRPLSLPRP,-0.291
8,RRIRKRPPRLPRPRPRPDHLPRP,-0.0896
9,RRIRVRPPRLPRPRPRPQLYPRP,-0.137
10,RRIRPRPPRLPRPRPRPWKRPRP,-0.0317
11,RRIRGRPPRLPRPRPRPRVWPRP,0.547
12,RRIRGRPPRLPRPRPRPQLGPRP,0.649
13,RRIRFRPPRLPRPRPRPFHHPRP,-0.976
14,RRIRGRPPRLPRPRPRPEVIPRP,0.073
15,RRIRDRPPRLPRPRPRPWFAPRP,-0.0921
16,RRIRKRPPRLPRPRPRPSTRPRP,-0.114
17,RRIRLRPPRLPRPRPRPDWMPRP,-0.152
18,RRIRFRPPRLPRPRPRPVFEPRP,-0.0387
19,RRIRSRPPRLPRPRPRPWFPPRP,-0.331
20,RRIRMRPPRLPRPRPRPEMKPRP,2.5
21,RRIRTRPPRLPRPRPRPVIHPRP,0.0146
22,RRIRNRPPRLPRPRPRPELAPRP,0.0428
23,RRIRKRPPRLPRPRPRPTQVPRP,0.312
24,RRIRCRPPRLPRPRPRPCLTPRP,-0.17
25,RRIRFRPPRLPRPRPRPNAMPRP,-0.191

row,Sequence,shrunken log2 fold change
1,RRIRVRPPRLPRPRPRPKFAPRP,0.0713
2,RRIRCRPPRLPRPRPRPDRIPRP,-0.0911
3,RRIRMRPPRLPRPRPRPYRNPRP,-0.18
4,RRIRHRPPRLPRPRPRPIKLPRP,-0.118
5,RRIRTRPPRLPRPRPRPLNCPRP,-0.405
6,RRIRERPPRLPRPRPRPMARPRP,0.116
7,RRIRWRPPRLPRPRPRPHSAPRP,-0.0726
8,RRIRGRPPRLPRPRPRPCMFPRP,0.797
9,RRIRVRPPRLPRPRPRPTLRPRP,0.102
10,RRIRARPPRLPRPRPRPWMNPRP,-0.121
11,RRIRQRPPRLPRPRPRPMMCPRP,-0.0115
12,RRIRTRPPRLPRPRPRPQNIPRP,-0.587
13,RRIRPRPPRLPRPRPRPKTWPRP,0.0474
14,RRIRHRPPRLPRPRPRPSGMPRP,0.0613
15,RRIRDRPPRLPRPRPRPMFVPRP,-0.0355
16,RRIRYRPPRLPRPRPRPPRWPRP,0.466
17,RRIRCRPPRLPRPRPRPVFMPRP,-0.359
18,RRIRTRPPRLPRPRPRPVPRPRP,0.315
19,RRIRSRPPRLPRPRPRPCEYPRP,0.0232
20,RRIRNRPPRLPRPRPRPGTCPRP,-0.0314
21,RRIRLRPPRLPRPRPRPLYSPRP,-1.1
22,RRIRMRPPRLPRPRPRPSDDPRP,1.89
23,RRIRMRPPRLPRPRPRPKSQPRP,2.06
24,RRIRARPPRLPRPRPRPCAKPRP,0.984
25,RRIRQRPPRLPRPRPRPPVHPRP,0.164

row,Sequence,shrunken log2 fold change
1,RRIRGRPPRLPRPRPRPAQNPRP,0.81
2,RRIRWRPPRLPRPRPRPPVGPRP,0.167
3,RRIRWRPPRLPRPRPRPTLIPRP,0.0335
4,RRIRQRPPRLPRPRPRPDVMPRP,0.0589
5,RRIRVRPPRLPRPRPRPGFRPRP,0.205
6,RRIRCRPPRLPRPRPRPVCQPRP,-0.102
7,RRIRYRPPRLPRPRPRPVDRPRP,-0.126
8,RRIRFRPPRLPRPRPRPVGIPRP,-0.135
9,RRIRFRPPRLPRPRPRPQMCPRP,-0.119
10,RRIRYRPPRLPRPRPRPGIRPRP,0.0108
11,RRIRGRPPRLPRPRPRPMDQPRP,0.489
12,RRIRRRPPRLPRPRPRPKIVPRP,0.0944
13,RRIRCRPPRLPRPRPRPWWWPRP,-0.1
14,RRIRSRPPRLPRPRPRPWYAPRP,-0.253
15,RRIRCRPPRLPRPRPRPYDPPRP,-0.914
16,RRIRTRPPRLPRPRPRPSPMPRP,-0.163
17,RRIRARPPRLPRPRPRPCQGPRP,-0.11
18,RRIRNRPPRLPRPRPRPACAPRP,0.3
19,RRIRWRPPRLPRPRPRPCAMPRP,-0.272
20,RRIRSRPPRLPRPRPRPRQSPRP,0.113
21,RRIRVRPPRLPRPRPRPCQHPRP,-0.09
22,RRIRQRPPRLPRPRPRPIKLPRP,-0.0569
23,RRIRNRPPRLPRPRPRPSDTPRP,-0.00711
24,RRIRFRPPRLPRPRPRPAPWPRP,0.592
25,RRIRARPPRLPRPRPRPTQTPRP,0.69

row,Sequence,shrunken log2 fold change
1,RRIRCRPPRLPRPRPRPHVCPRP,0.0221
2,RRIRARPPRLPRPRPRPMLPPRP,0.425
3,RRIRERPPRLPRPRPRPPTFPRP,-0.767
4,RRIRTRPPRLPRPRPRPPRNPRP,1.27
5,RRIRERPPRLPRPRPRPTMRPRP,0.732
6,RRIRKRPPRLPRPRPRPTSVPRP,0.0245
7,RRIRHRPPRLPRPRPRPFPCPRP,-0.0311
8,RRIRGRPPRLPRPRPRPIWYPRP,-0.114
9,RRIRWRPPRLPRPRPRPYNDPRP,-0.194
10,RRIRNRPPRLPRPRPRPKFKPRP,-0.508
11,RRIRYRPPRLPRPRPRPSGCPRP,-0.264
12,RRIRVRPPRLPRPRPRPQSSPRP,-0.0172
13,RRIRSRPPRLPRPRPRPHSEPRP,-0.0351
14,RRIRKRPPRLPRPRPRPCADPRP,0.006
15,RRIRDRPPRLPRPRPRPDCWPRP,1.65
16,RRIRPRPPRLPRPRPRPFHCPRP,-0.297
17,RRIRNRPPRLPRPRPRPNFFPRP,0.0771
18,RRIRERPPRLPRPRPRPYDFPRP,-0.0231
19,RRIRYRPPRLPRPRPRPFMCPRP,-0.233
20,RRIRRRPPRLPRPRPRPISTPRP,-0.0842
21,RRIRTRPPRLPRPRPRPHWRPRP,0.027
22,RRIRWRPPRLPRPRPRPTANPRP,0.399
23,RRIRKRPPRLPRPRPRPYQIPRP,-0.000276
24,RRIRYRPPRLPRPRPRPEHAPRP,0.0635
25,RRIRFRPPRLPRPRPRPPTYPRP,-0.0496

row,Sequence,shrunken log2 fold change
1,RRIRLRPPRLPRPRPRPFFTPRP,-0.144
2,RRIRWRPPRLPRPRPRPIRPPRP,-0.116
3,RRIRHRPPRLPRPRPRPICEPRP,-0.369
4,RRIRDRPPRLPRPRPRPKLFPRP,0.168
5,RRIRTRPPRLPRPRPRPGNFPRP,-0.0548
6,RRIRRRPPRLPRPRPRPEKWPRP,-0.00174
7,RRIRVRPPRLPRPRPRPGGAPRP,0.603
8,RRIRGRPPRLPRPRPRPSMHPRP,0.421
9,RRIRPRPPRLPRPRPRPVMWPRP,0.385
10,RRIRYRPPRLPRPRPRPQAGPRP,0.00284
11,RRIRERPPRLPRPRPRPESFPRP,0.0447
12,RRIRARPPRLPRPRPRPMLLPRP,-0.0981
13,RRIRQRPPRLPRPRPRPGLGPRP,0.492
14,RRIRQRPPRLPRPRPRPHQHPRP,-0.309
15,RRIRVRPPRLPRPRPRPDASPRP,0.0719
16,RRIRRRPPRLPRPRPRPANWPRP,0.387
17,RRIRTRPPRLPRPRPRPVWRPRP,0.302
18,RRIRSRPPRLPRPRPRPVYPPRP,-0.11
19,RRIRIRPPRLPRPRPRPLGKPRP,-0.248
20,RRIRYRPPRLPRPRPRPRPAPRP,0.393
21,RRIRFRPPRLPRPRPRPKVFPRP,0.0358
22,RRIRWRPPRLPRPRPRPTDPPRP,0.374
23,RRIRDRPPRLPRPRPRPPPFPRP,0.321
24,RRIRYRPPRLPRPRPRPDCQPRP,-0.0127
25,RRIRIRPPRLPRPRPRPVKTPRP,-0.0343

# — the supplement of paper PMC9112550, “Optimization of the antimicrobial peptide Bac7 by deep mutational scanning” (BMC Biology, 2022)
